Where two headings read alike, the source gives them in different places. One block for each molecule: values may come before it.
Key:
[1] = target: T1, RlGabD (SLA dehydrogenase) (Rhizobium leguminosarum, UniProt A0AAJ6N661); assay: enzyme inhibition assay with constant SLA and NAD+; type: biochemical; set-up: gene EV132_10158; recombinant RlGabD
T1 sequence (A0AAJ6N661 1-489): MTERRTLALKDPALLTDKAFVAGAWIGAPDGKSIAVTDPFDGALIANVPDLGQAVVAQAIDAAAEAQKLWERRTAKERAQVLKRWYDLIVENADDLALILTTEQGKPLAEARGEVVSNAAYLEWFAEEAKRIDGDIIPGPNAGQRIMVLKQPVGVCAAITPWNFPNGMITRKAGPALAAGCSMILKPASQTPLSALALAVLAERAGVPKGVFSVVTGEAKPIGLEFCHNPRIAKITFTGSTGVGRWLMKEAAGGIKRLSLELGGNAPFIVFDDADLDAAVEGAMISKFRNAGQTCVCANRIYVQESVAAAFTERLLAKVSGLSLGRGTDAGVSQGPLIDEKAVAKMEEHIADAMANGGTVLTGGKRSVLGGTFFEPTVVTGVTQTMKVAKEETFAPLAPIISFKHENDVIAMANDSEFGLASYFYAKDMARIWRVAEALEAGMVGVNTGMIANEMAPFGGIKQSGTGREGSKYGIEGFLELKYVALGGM

[2] = target: T1, RlGabD (SLA dehydrogenase); assay: biochemical; set-up: gene EV132_10158; recombinant RlGabD; nanoDSF thermal shift (F350/F330 intrinsic fluorescence) of recombinant RlGabD with ligand; conditions: nanoDSF, average of 2 replicates; read-out: ∆Tm (Avg)
[3] = target: T1, RlGabD (SLA dehydrogenase); assay: cryo-EM structure of binary complex at […] Å; type: binding; set-up: gene EV132_10158; recombinant RlGabD tetramer
[4] = target: T1, RlGabD (SLA dehydrogenase); assay: biochemical; set-up: gene EV132_10158; recombinant RlGabD; nanoDSF thermal shift (F350/F330 intrinsic fluorescence) of recombinant RlGabD with ligand; conditions: nanoDSF, average of 2 replicates; read-out: ∆Tm (Avg); remark: listed apart in the source
[5] = target: SLA dehydrogenase RlGabD from Rhizobium leguminosarum SRDI565 (Rhizobium leguminosarum bv. trifolii SRDI565); assay: SEC-MALS; SEC-MALLS of RlGabD in solution; homotetramer
[6] = substrate: NC(=O)c1ccc[n+]([C@@H]2O[C@H](COP(=O)([O-])OP(=O)(O)OC[C@H]3O[C@@H](n4cnc5c(N)ncnc54)[C@H](OP(=O)(O)O)[C@@H]3O)[C@@H](O)[C@H]2O)c1; assay: purified protein; conditions: […]′-phosphate binding residues Ser179 and Lys182 (E. coli SSADH numbering) conserved; varied: cofactor
[7] = substrate: O=CC(O)COP(=O)(O)O; assay: purified protein; conditions: NADP+
[8] = substrate: NC(=O)c1ccc[n+]([C@@H]2O[C@H](COP(=O)([O-])OP(=O)(O)OC[C@H]3O[C@@H](n4cnc5c(N)ncnc54)[C@H](O)[C@@H]3O)[C@@H](O)[C@H]2O)c1; assay: purified protein; type: biochemical, Rhizobium leguminosarum; conditions: binds first to enzyme (rapid equilibrium ordered mechanism); varied: cofactor
[9] = substrate: O=CC(O)CS(=O)(=O)O; assay: purified protein; type: biochemical, Rhizobium leguminosarum; conditions: NAD+ proposed: Cys295 nucleophile, Glu261 general base, Asn163 oxyanion hole, Arg171/Arg289 sulfonate binding

Molecule: NC(=O)C1=CN([C@@H]2O[C@H](COP(=O)(O)OP(=O)(O)OC[C@H]3O[C@@H](n4cnc5c(N)ncnc54)[C@H](O)[C@@H]3O)[C@@H](O)[C@H]2O)C=CC1 [NADH]
ΔTm at 10000 µM [2]: 1.5 °C
cryo-EM structure of binary complex at 2.52 Å [3]: The RlGabD·NADH complex shows the binding mode and positioning of the cofactor.

Molecule: NC(=O)c1ccc[n+]([C@@H]2O[C@H](COP(=O)([O-])OP(=O)(O)OC[C@H]3O[C@@H](n4cnc5c(N)ncnc54)[C@H](OP(=O)(O)O)[C@@H]3O)[C@@H](O)[C@H]2O)c1 [NADP^+]
ΔTm at 10000 µM [2]: 3.5 °C

Molecule: NC(=O)C1=CN([C@@H]2O[C@H](COP(=O)(O)OP(=O)(O)OC[C@H]3O[C@@H](n4cnc5c(N)ncnc54)[C@H](OP(=O)(O)O)[C@@H]3O)[C@@H](O)[C@H]2O)C=CC1 [NADPH]
ΔTm at 10000 µM [4]: 2.5 °C

B1: RlGabD (SLA dehydrogenase) (Rhizobium leguminosarum bv. trifolii SRDI565) (protein)
chain: T1 sequence (A0AAJ6N661 1-489)
notes: recombinant RlGabD
Km [6]: 17 ± 4.1 µM
kcat [6]: 4.1 s⁻¹
kcat/Km [6]: 240000 M⁻¹ s⁻¹
Km [7]: 170 ± 28 µM
kcat [7]: 3 s⁻¹
kcat/Km [7]: 10500 M⁻¹ s⁻¹
Km [8]: 81 ± 19 µM
kcat [8]: 17.7 ± 3.2 s⁻¹
kcat/Km [8]: 210000 ± 63000 M⁻¹ s⁻¹
Km [9]: 130 ± 40 µM
kcat [9]: 17.8 ± 7 s⁻¹
kcat/Km [9]: 137000 ± 72000 M⁻¹ s⁻¹

Next, values leading:

IC50 [1]: 28 µM
Molecule: NC(=O)C1=CN([C@@H]2O[C@H](COP(=O)(O)OP(=O)(O)OC[C@H]3O[C@@H](n4cnc5c(N)ncnc54)[C@H](O)[C@@H]3O)[C@@H](O)[C@H]2O)CCC1 [tetrahydro-NADH]

ΔTm at 10000 µM [2]: 4.3 °C
Molecule: NC(=O)c1ccc[n+]([C@@H]2O[C@H](COP(=O)([O-])OP(=O)(O)OC[C@H]3O[C@@H](n4cnc5c(N)ncnc54)[C@H](O)[C@@H]3O)[C@@H](O)[C@H]2O)c1 [NAD^+]

stoichiometry N [5]: 4
Molecule: SLA dehydrogenase RlGabD from Rhizobium leguminosarum SRDI565 (enzyme)
